These results are taken from US20250243273A1 (FOURTH MILITARY MEDICAL UNIVERSITY, published 2025).

The target in this experiment is T1, human BASIGIN, native, on human erythrocytes and in human tumour tissue (human, UniProt P35613 22-385).
T1 sequence (looked up): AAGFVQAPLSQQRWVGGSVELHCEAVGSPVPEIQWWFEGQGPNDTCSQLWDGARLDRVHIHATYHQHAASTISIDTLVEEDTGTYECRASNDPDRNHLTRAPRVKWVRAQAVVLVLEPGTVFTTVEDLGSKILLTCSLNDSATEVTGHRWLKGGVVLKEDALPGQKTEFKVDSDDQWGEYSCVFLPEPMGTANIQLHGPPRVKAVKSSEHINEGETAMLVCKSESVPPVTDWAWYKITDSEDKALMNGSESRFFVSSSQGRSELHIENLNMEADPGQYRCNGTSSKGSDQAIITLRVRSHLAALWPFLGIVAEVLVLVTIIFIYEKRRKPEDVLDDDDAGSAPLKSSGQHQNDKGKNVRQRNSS
Description: cell-based or functional assay.

B1: humanized antibody HP6H8-1 (antibody, V domains shown)
VH: EVQLVESGGGLVQPGGSLRLSCAASGFTFSNFWMNWVRQAPGKGLEWVSEIRLKSNNYATHYAESVKGRFTISRDDSKNTLYLQMNSLKTEDTAVYYCTSYDYEYWGQGTLVTVSA
VL: DIQMTQSPSTLSASVGDRVTLSCKASENVGTYVSWYQQKPGKAPKLLIYGASNRYTGVPSRFTGSGSGTDFTLTISSLQPEDFATYYCGQSYSYPFTFGSGTKLEIK
On to B1, for which the “IC50, in vitro inhibition of Plasmodium falciparum strain 3D7 invasion of human erythrocytes (parasite rate after 72 hrs)” value is 20 µg/mL; the “IC50, in vitro inhibition of Plasmodium falciparum strain Dd2 invasion of human erythrocytes (parasite rate after 72 hrs)” value came to 40 µg/mL; the “IC50, in vitro inhibition of Plasmodium falciparum strain FCC1 invasion of human erythrocytes (parasite rate after 72 hrs)” value amounted to 40 µg/mL; the “IC50, in vitro inhibition of Plasmodium falciparum strain Nf54 invasion of human erythrocytes (parasite rate after 72 hrs)” value is 50 µg/mL.
